Laboratory results reported in patent US20230346919A1.

Target: SARS-CoV-2 spike SΔ21 displayed on VSV-eGFP-SARS-CoV-2-SΔ21 particles (SARS-CoV-2 isolate Wuhan-Hu-1) (UniProt P0DTC2)
Assay: cell-based or functional assay

mAb S309 (antibody)
EC50, neutralization of VSV-SARS-CoV-2-SΔ21 (GRNT, Vero E6 cells): 0.067 µg/mL
